Reference: the supplement of paper PMC9170038

Test system: MS2 coat protein
Test: apparent KD of MS2 coat protein; designed switch direction (-1 OFF switch, 1 ON switch): -1; higher = weaker reporter binding
Method in brief: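 The apparent KD reported per design is the median over clusters of curve fits to normalised cluster fluorescence. The RNA switches were transcribed on Illumina chips by stalled E. coli RNA polymerase. SNAP-549-labelled MS2 coat protein was titrated from 0.7 or 1.5 nM, doubling up to 3 µM, in Tris-HCl pH 7.5 buffer containing KCl, MgCl2, BSA, DTT, tRNA and Tween-20, with no input, 200 uM small-molecule ligand, or an oligonucleotide input.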

[1] = Eterna round: R95, input ligand: FMN 200 uM
[2] = Eterna round: R95, input ligand: microRNA oligo, concentration not stated
[3] = Eterna round: R95, input ligand: none
[4] = input ligand: microRNA oligo, concentration not stated

Row | Sequence | apparent KD of MS2 coat protein (input ligand: FMN 200 uM) | apparent KD of MS2 coat protein (input ligand: none) | apparent KD of MS2 coat protein [1] | apparent KD of MS2 coat protein [2] | apparent KD of MS2 coat protein [3] | apparent KD of MS2 coat protein [4]
1 | UGAUUGUUUACCAGAUUAUACAUGAGGAUCACCCAUGUAGAUCCUACGUGCACGUUAUACAGCUCGUCUUAUUCCCA [Sensor-V1 #74] (Eterna round: R97, puzzle: Sensor, turn-off variant 1) | 35.4 nM | 36.2 nM | – | – | – | –
2 | AGUACUAACACGGAAGUGUUAGUACUAUAAGCUUGUGUUACAUGAGGAUCACCCAUGUCCUCAUAAGCUCGUCUUAA [Mat - Sensor v3 - Turn-off var 2 - D70] (puzzle: Sensor v3, turn-off variant 2) | – | – | 35.1 nM | 127 nM | 36.4 nM | –
3 | AGACGGUGAGGAUAUAGACGCAAUCACAUGAGGAUCACCCAUGUGACACGUGAUGGCUGGUUAGAAGGCGCGAAUC [Eternabot (L1) Solution 37] (Eterna round: R97, puzzle: Exclusion 5) | 17.1 nM | 17.4 nM | – | – | – | –
4 | CAGUACUGAGGAUAUACAUGAGGAUCACCCAUGUCCCAAAAGUAGGAUACUACUAUUAGUAGAAGGCAGUACUG [Fiskers Ex 3 828 mod 25] (Eterna round: R96, puzzle: Exclusion 3) | 498 nM | 46.1 nM | – | – | – | 43.2 nM
5 | GGUCAUCAAGUCAGGAUAUCGUCAAAUCAAUCAGGCGAGAAGGGACAUGAGGAUCACCCAUGUCGACUCAUCAG [Ex4 #5] (Eterna round: R97, puzzle: Brourd's mod of Exclusion 4) | 123 nM | 34.3 nM | – | – | – | –
6 | AGUAACCGUCACGAAAGUGAUGGUUACACAGGCAAAUGUACAUGAGGAUCACCCAUGUCCUCAAUUGCUCGUCUUAU [Sensor 3 - 53] (puzzle: Sensor v3, turn-off variant 2) | – | – | 115 nM | 181 nM | 120 nM | –
7 | CCCUCACAUGAGGAUCACCCAUGUCAGGAUAUUCGAACGGUGUGUUUUUGGCCAGUUGGAAGAAGGGACAUAAA [Riinesbe] (Eterna round: R96, puzzle: Exclusion 1) | 278 nM | 32.2 nM | – | – | – | 29 nM
8 | CGAAGUAGAAACCGAUCCUACAUGAGGAUCACCCAUGUAGCAAGACGUGCACGCGAAGCUCGUCAGACUACCAGAAU [salish99_TOv1_r3_015] (puzzle: Sensor v3, turn-off variant 1) | – | – | 212 nM | 257 nM | 430 nM | –
9 | CCCUCACAUGAGGAUCACCCAUGUCAGGAUAUUCGAACGGUGUGUUUUUGGCCAGUUGGAAGAAGGGACAUAAA [Riinesbe] (puzzle: Exclusion 1) | – | – | – | 36.2 nM | – | –
10 | CUGCUCCGUGUAGGAUAUGCGCGCAACCAACGCGCAGAAGGACAUGAGGAUCACCCAUGUAUGUUAUUAUCACGUGAGGCGCAG [Design 33] (Eterna round: R96, puzzle: Exclusion NG 1) | 28.9 nM | 16.6 nM | – | – | – | 13.2 nM
11 | ACAUUGCGAGGAUAUACAUGAGGAUCACCCAUGUGGUGGCAGUUACGGUAGGACUAGUGUAGAAGGUGCCAUGG [EX3 #23] (Eterna round: R97, puzzle: Exclusion 3) | 441 nM | 401 nM | – | – | – | –
12 | AGCUAGUCAGGAUAUUCUAUUAAUUACAUGAGGAUCACCCAUGUGAAUGGGCAAGGGUGUGAAGAAGGGACUAGCG [Omei Ex5 A16] (Eterna round: R97, puzzle: Exclusion 5) | 305 nM | 1030 nM | – | – | – | –
13 | AUUUUAACAUAGGAUAUCGAAUUUAUUAUUUAACGAGAAGGAUGAACAUGAGGAUCACCCAUGUGGUAUCAUGA [Mat - Exclusion 6 - JL Mod - D21] (puzzle: Exclusion 6) | – | – | 72.8 nM | 40.6 nM | 45.9 nM | –
14 | CCGAGGUGGCGGUCCUAUGACAUGAGGAUCACCCAUGUACCUCGCCACAAGCUUUUUGCUCAUCUUAUAAUUCUCGG [Gelelebius] (puzzle: Sensor v3, turn-off variant 1) | – | – | 18 nM | 117 nM | 16.1 nM | –
15 | AGCUAGUCAGGAUAUUCUGUUAAUUACAUGAGGAUCACCCAUGUGAAUGGACAAGGGUGUGAAGAAGGGACUAGCG [Omei Ex5 A15] (Eterna round: R97, puzzle: Exclusion 5) | 124 nM | 248 nM | – | – | – | –
16 | UACAUGAGGAUCACCCAUGUUUUGUCGUGUAUGGUAUUUAUCUAGGAUAUCAAUGUAGUUAUUUAUGAGAAGGAGAAUAUUAAU [JMF's solution 41] (Eterna round: R96, puzzle: Exclusion NG 3) | 43 nM | 50.8 nM | – | – | – | 37.5 nM
17 | UUUUUUGGGCAAGGAUAUCCUGUGCGGUUCCGGCUCGUGUCUGUCACAUGAGGAUCACCCAUGUGGGAGAAGGUGCCUGCGGUU [Design 84] (Eterna round: R96, puzzle: Exclusion NG 2) | 15.1 nM | 15.4 nM | – | – | – | 10.8 nM

Row | Sequence | apparent KD of MS2 coat protein (input ligand: FMN 200 uM) | apparent KD of MS2 coat protein (input ligand: none) | apparent KD of MS2 coat protein [1] | apparent KD of MS2 coat protein [2] | apparent KD of MS2 coat protein [3] | apparent KD of MS2 coat protein [4]
18 | CAGGAUAGAGGAUAUACAUAGAUACAGAUUCAUGUAAUCCUACAUGAGGAUCACCCAUGUAGAAGGCUAUCCUG [Fiskers Ex 2 - 16] (puzzle: Exclusion 2) | – | – | – | 15.4 nM | – | –
19 | ACAUGACUGCUAGGAUAUAGAUGACAUGAGGAUCACCCAUGUUGUCCCAUGUUGAUGGAAACCGACUAGAAGGAGCAGCAUAUG [Ex NG2 #11] (Eterna round: R96, puzzle: Exclusion NG 2) | 47.4 nM | 35 nM | – | – | – | 22.9 nM
20 | UUCCUCUCUUCUCUGUCUCACAUGAGGAUCACCCAUGUAACAUAGGAUAUGCUUGGUAUUUAAAUGCAGAAGGAUGUUAGUAUU [JR_ExcNG3_Sub082] (Eterna round: R96, puzzle: Exclusion NG 3) | 82.9 nM | 30.2 nM | – | – | – | 22.4 nM
21 | AGAUCACAUGAGGAUCACCCAUGUCAGGAUAUGAUACUAUGUACUUCGGUACAUAGUAUCAGAAGGGACAUAAA [Ex1-3: 69] (puzzle: Exclusion 1) | – | – | 31.5 nM | 140 nM | 89.2 nM | –
22 | CUUUUGUGAGGAUAUUAGUAGUAAAUAAAUAAAAUUACUACUUAGAAGGCACAUGAGGAUCACCCAUGUUCCUC [salish99_ex4_r3_043] (puzzle: Exclusion 4) | – | – | – | 28.3 nM | – | –
23 | UGUUGUCGCGUAGGAUAUGAGGAUCACCCAUAUACAGGAUAUGAAAAGAAGGGUCUGAGGAUCACCCAGAAGGACGGGACAACU [pwkr exNG2 2xF5 2xFMN.28] (Eterna round: R96, puzzle: Exclusion NG 2) | 1390 nM | 116 nM | – | – | – | 94.9 nM
24 | GGCUUCUGAGGAUAUUAACACCGUUACAUGAGGAUCACCCAUGUUCCUCACGCUACGGCUUAAGAAGGCAGAUGAA [Eternabot (Original) Solution 32] (Eterna round: R97, puzzle: Exclusion 5) | 29.6 nM | 64.9 nM | – | – | – | –
25 | AAACCCUGAGGAUAUGCAUAACAACAAAGCCUCACGUGCCAACAUGAGGAUCACCCAUGUAGAAGGCGGGCCAA [Mod R3 Insanara 18 - Jieux - Exclusion 2] (Eterna round: R97, puzzle: Exclusion 2) | 24.3 nM | 15.7 nM | – | – | – | –
26 | UGGUAACAUGAGGAUCACCCAUGUCAGGAUAUCAGGAAGAGGAGAGGAGAGGAGAAGAUGAGAAGGGACUAUAU [Excluse me! 12 - Jieux - Exclusion 1] (puzzle: Exclusion 1) | – | – | – | 19.8 nM | – | –
27 | UGGCUACAUGAGGAUCACCCAUGUCAGGAUAUGCCGUUGAAUUGACAUCGACGUACGGGUAGAAGGGACUGCGU [1st #10] (Eterna round: R97, puzzle: Exclusion 1) | 50 nM | 41.6 nM | – | – | – | –
28 | AGCUUUGCUGCUCGUCCCAACAUGAGGAUCACCCAUGUUCUUAUGAAACCAUCUAGCCUAGAUGGGUCUUGCCAAAG [Eternabot (Original) Solution 47] (Eterna round: R97, puzzle: Sensor, turn-off variant 1) | 27.1 nM | 29.1 nM | – | – | – | –
29 | AUUAUAUAGACAGGAUAUAGAAUAUUAUUUUAACAUGAGGAUCACCCAUGUAACCUUAUGUGUAGCUAGAAGGGUCAUUUAUUA [Title] (Eterna round: R96, puzzle: Exclusion NG 2) | – | – | – | – | – | 77.4 nM
30 | UGCAUGUGAGGAUAUGUGUACUGUUUUUUGUUUAGAUGUACACAGAAGGCACAUGAGGAUCACCCAUGUAGUAC [Ex4 - 3 - 33] (puzzle: Exclusion 4) | – | – | – | 46.1 nM | – | –
31 | AGAUUAAUAGUAAGGAUAUGAUGCAGGAAACUGCGUCAGAAGGUACAUGAGGAUCACCCAUGUUAAACUAAUUU [Explosion 7 - Jieux - Brourd's mod of Exclusion 4] (Eterna round: R97, puzzle: Brourd's mod of Exclusion 4) | 17.4 nM | 15 nM | – | – | – | –
32 | GUGGGUUACAUGAGGAUCACCCAUGUAUAGUGGGAAGAGAUAUAGGAUAUAAUGUAAAAAUUAUAUUAGAAGGAUAGAGACUAG [AK ExNG3-1.3] (Eterna round: R96, puzzle: Exclusion NG 3) | 344 nM | 553 nM | – | – | – | 135 nM
33 | UAGACUGAAGGAUAUACGUGGUAUCCGGCUAAUCAAGGUUCACAUGAGGAUCACCCAUGUAGAAGGUCAGCUCG [Eternabot (L2) Solution 18] (Eterna round: R97, puzzle: Exclusion 2) | 359 nM | 58.4 nM | – | – | – | –
34 | UCGUGAUUAGAGGAUAUAUUAAGAGUCAGAACAAUAGAAGGCUAAACAUGAGGAUCACCCAUGUAAAUGUGAAA [JR_Ex6_Sub060] (Eterna round: R97, puzzle: Exclusion 6) | 172 nM | 35.5 nM | – | – | – | –
